Results taken from EP4692114A1, “CALCITONIN ANALOGUE, AND DERIVATIVE THEREOF AND USE THEREOF” (Hangzhou Sciwind Biosciences Co., Ltd., priority 2023, dated 2024).
*1 amine or outer side, *2 acyl side, *3 side chain or, on linkers, in order; H or OH if unused. The star is where a group is joined. C22 diacid = O=C(O)CCCCCCCCCCCCCCCCCCCCC(=O)*; C20 diacid = O=C(O)CCCCCCCCCCCCCCCCCCC(=O)*; γGlu = O=C(O)[C@H](CCC(=O)[*:2])N[*:1]; AEEA = NCCOCCOCC(=O)O

T1: human amylin receptor (AMY3) on CHO-K1/Gal5/AMY3 cells (human, UniProt P30988 25-474; O60896 24-148)
T1 sequence (looked up) 1: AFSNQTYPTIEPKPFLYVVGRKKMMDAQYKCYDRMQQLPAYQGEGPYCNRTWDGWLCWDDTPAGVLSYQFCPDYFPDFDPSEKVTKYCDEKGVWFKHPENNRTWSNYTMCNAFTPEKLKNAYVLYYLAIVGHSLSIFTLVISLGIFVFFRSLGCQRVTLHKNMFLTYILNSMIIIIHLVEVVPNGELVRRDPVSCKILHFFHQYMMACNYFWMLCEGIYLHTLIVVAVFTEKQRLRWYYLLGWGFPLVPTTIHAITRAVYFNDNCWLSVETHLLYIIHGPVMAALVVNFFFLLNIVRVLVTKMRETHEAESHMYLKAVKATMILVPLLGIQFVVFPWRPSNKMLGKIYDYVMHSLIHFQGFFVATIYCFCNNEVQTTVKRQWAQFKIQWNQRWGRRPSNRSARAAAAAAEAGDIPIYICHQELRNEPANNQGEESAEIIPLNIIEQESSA
T1 sequence (looked up) 2: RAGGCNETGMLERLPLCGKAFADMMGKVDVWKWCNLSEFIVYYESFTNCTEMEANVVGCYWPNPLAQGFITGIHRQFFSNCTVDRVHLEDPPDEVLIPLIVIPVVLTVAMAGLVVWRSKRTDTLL

B1: calcitonin derivative M52 (peptide)
peptide: {C20 diacid}-EASQLSTAVLGRLSEELHRLQDYPRTDVGSGSP-NH2
SMILES: CC(C)C[C@H](NC(=O)[C@H](CCCNC(=N)N)NC(=O)CNC(=O)[C@H](CC(C)C)NC(=O)[C@@H](NC(=O)[C@H](C)NC(=O)[C@@H](NC(=O)[C@H](CO)NC(=O)[C@H](CC(C)C)NC(=O)[C@H](CCC(N)=O)NC(=O)[C@H](CO)NC(=O)[C@H](C)NC(=O)[C@H](CCC(=O)O)NC(=O)CCCCCCCCCCCCCCCCCCC(=O)O)[C@@H](C)O)C(C)C)C(=O)N[C@@H](CO)C(=O)N[C@@H](CCC(=O)O)C(=O)N[C@@H](CCC(=O)O)C(=O)N[C@@H](CC(C)C)C(=O)N[C@@H](Cc1c[nH]cn1)C(=O)N[C@@H](CCCNC(=N)N)C(=O)N[C@@H](CC(C)C)C(=O)N[C@@H](CCC(N)=O)C(=O)N[C@@H](CC(=O)O)C(=O)N[C@@H](Cc1ccc(O)cc1)C(=O)N1CCC[C@H]1C(=O)N[C@@H](CCCNC(=N)N)C(=O)N[C@H](C(=O)N[C@@H](CC(=O)O)C(=O)N[C@H](C(=O)NCC(=O)N[C@@H](CO)C(=O)NCC(=O)N[C@@H](CO)C(=O)N1CCC[C@H]1C(N)=O)C(C)C)[C@@H](C)O
B2: calcitonin derivative M66 (peptide)
peptide: {C22 diacid-γGlu-AEEA-AEEA}-ASQLSTAVLGRLSEELHRLQDYPRTDVGSGSP-NH2
SMILES: CC(C)C[C@H](NC(=O)[C@H](CCCNC(=N)N)NC(=O)CNC(=O)[C@H](CC(C)C)NC(=O)[C@@H](NC(=O)[C@H](C)NC(=O)[C@@H](NC(=O)[C@H](CO)NC(=O)[C@H](CC(C)C)NC(=O)[C@H](CCC(N)=O)NC(=O)[C@H](CO)NC(=O)[C@H](C)NC(=O)COCCOCCNC(=O)COCCOCCNC(=O)CC[C@H](NC(=O)CCCCCCCCCCCCCCCCCCCCC(=O)O)C(=O)O)[C@@H](C)O)C(C)C)C(=O)N[C@@H](CO)C(=O)N[C@@H](CCC(=O)O)C(=O)N[C@@H](CCC(=O)O)C(=O)N[C@@H](CC(C)C)C(=O)N[C@@H](Cc1c[nH]cn1)C(=O)N[C@@H](CCCNC(=N)N)C(=O)N[C@@H](CC(C)C)C(=O)N[C@@H](CCC(N)=O)C(=O)N[C@@H](CC(=O)O)C(=O)N[C@@H](Cc1ccc(O)cc1)C(=O)N1CCC[C@H]1C(=O)N[C@@H](CCCNC(=N)N)C(=O)N[C@H](C(=O)N[C@@H](CC(=O)O)C(=O)N[C@H](C(=O)NCC(=O)N[C@@H](CO)C(=O)NCC(=O)N[C@@H](CO)C(=O)N1CCC[C@H]1C(N)=O)C(C)C)[C@@H](C)O
B3: calcitonin derivative M50 (peptide)
peptide: {C20 diacid-γGlu}-ASQLSTAVLGRLSDELHRLQDLPRTDVGSGSP-NH2
SMILES: CC(C)C[C@H](NC(=O)[C@H](CCCNC(=N)N)NC(=O)CNC(=O)[C@H](CC(C)C)NC(=O)[C@@H](NC(=O)[C@H](C)NC(=O)[C@@H](NC(=O)[C@H](CO)NC(=O)[C@H](CC(C)C)NC(=O)[C@H](CCC(N)=O)NC(=O)[C@H](CO)NC(=O)[C@H](C)NC(=O)CC[C@H](NC(=O)CCCCCCCCCCCCCCCCCCC(=O)O)C(=O)O)[C@@H](C)O)C(C)C)C(=O)N[C@@H](CO)C(=O)N[C@@H](CC(=O)O)C(=O)N[C@@H](CCC(=O)O)C(=O)N[C@@H](CC(C)C)C(=O)N[C@@H](Cc1c[nH]cn1)C(=O)N[C@@H](CCCNC(=N)N)C(=O)N[C@@H](CC(C)C)C(=O)N[C@@H](CCC(N)=O)C(=O)N[C@@H](CC(=O)O)C(=O)N[C@@H](CC(C)C)C(=O)N1CCC[C@H]1C(=O)N[C@@H](CCCNC(=N)N)C(=O)N[C@H](C(=O)N[C@@H](CC(=O)O)C(=O)N[C@H](C(=O)NCC(=O)N[C@@H](CO)C(=O)NCC(=O)N[C@@H](CO)C(=O)N1CCC[C@H]1C(N)=O)C(C)C)[C@@H](C)O
B4: calcitonin derivative M18 (peptide)
peptide: {C20 diacid-γGlu}-ASQLSTAVLGRLSQELHRLQDLPRTDVGSGSP-NH2
SMILES: CC(C)C[C@H](NC(=O)[C@H](CCCNC(=N)N)NC(=O)CNC(=O)[C@H](CC(C)C)NC(=O)[C@@H](NC(=O)[C@H](C)NC(=O)[C@@H](NC(=O)[C@H](CO)NC(=O)[C@H](CC(C)C)NC(=O)[C@H](CCC(N)=O)NC(=O)[C@H](CO)NC(=O)[C@H](C)NC(=O)CC[C@H](NC(=O)CCCCCCCCCCCCCCCCCCC(=O)O)C(=O)O)[C@@H](C)O)C(C)C)C(=O)N[C@@H](CO)C(=O)N[C@@H](CCC(N)=O)C(=O)N[C@@H](CCC(=O)O)C(=O)N[C@@H](CC(C)C)C(=O)N[C@@H](Cc1c[nH]cn1)C(=O)N[C@@H](CCCNC(=N)N)C(=O)N[C@@H](CC(C)C)C(=O)N[C@@H](CCC(N)=O)C(=O)N[C@@H](CC(=O)O)C(=O)N[C@@H](CC(C)C)C(=O)N1CCC[C@H]1C(=O)N[C@@H](CCCNC(=N)N)C(=O)N[C@H](C(=O)N[C@@H](CC(=O)O)C(=O)N[C@H](C(=O)NCC(=O)N[C@@H](CO)C(=O)NCC(=O)N[C@@H](CO)C(=O)N1CCC[C@H]1C(N)=O)C(C)C)[C@@H](C)O
B5: calcitonin derivative M35 (peptide)
peptide: {C20 diacid-γGlu}-RSQLSTDVLGRLSQELHRLQDYPRTDVGSGSP-NH2
SMILES: CC(C)C[C@H](NC(=O)[C@H](CCCNC(=N)N)NC(=O)CNC(=O)[C@H](CC(C)C)NC(=O)[C@@H](NC(=O)[C@H](CC(=O)O)NC(=O)[C@@H](NC(=O)[C@H](CO)NC(=O)[C@H](CC(C)C)NC(=O)[C@H](CCC(N)=O)NC(=O)[C@H](CO)NC(=O)[C@H](CCCNC(=N)N)NC(=O)CC[C@H](NC(=O)CCCCCCCCCCCCCCCCCCC(=O)O)C(=O)O)[C@@H](C)O)C(C)C)C(=O)N[C@@H](CO)C(=O)N[C@@H](CCC(N)=O)C(=O)N[C@@H](CCC(=O)O)C(=O)N[C@@H](CC(C)C)C(=O)N[C@@H](Cc1c[nH]cn1)C(=O)N[C@@H](CCCNC(=N)N)C(=O)N[C@@H](CC(C)C)C(=O)N[C@@H](CCC(N)=O)C(=O)N[C@@H](CC(=O)O)C(=O)N[C@@H](Cc1ccc(O)cc1)C(=O)N1CCC[C@H]1C(=O)N[C@@H](CCCNC(=N)N)C(=O)N[C@H](C(=O)N[C@@H](CC(=O)O)C(=O)N[C@H](C(=O)NCC(=O)N[C@@H](CO)C(=O)NCC(=O)N[C@@H](CO)C(=O)N1CCC[C@H]1C(N)=O)C(C)C)[C@@H](C)O
B6: calcitonin derivative M20 (peptide)
peptide: {C20 diacid-γGlu}-ASQLSTAVLGRLSQELHRLQDYPRTDVGAESP-NH2
SMILES: CC(C)C[C@H](NC(=O)[C@H](CCCNC(=N)N)NC(=O)CNC(=O)[C@H](CC(C)C)NC(=O)[C@@H](NC(=O)[C@H](C)NC(=O)[C@@H](NC(=O)[C@H](CO)NC(=O)[C@H](CC(C)C)NC(=O)[C@H](CCC(N)=O)NC(=O)[C@H](CO)NC(=O)[C@H](C)NC(=O)CC[C@H](NC(=O)CCCCCCCCCCCCCCCCCCC(=O)O)C(=O)O)[C@@H](C)O)C(C)C)C(=O)N[C@@H](CO)C(=O)N[C@@H](CCC(N)=O)C(=O)N[C@@H](CCC(=O)O)C(=O)N[C@@H](CC(C)C)C(=O)N[C@@H](Cc1c[nH]cn1)C(=O)N[C@@H](CCCNC(=N)N)C(=O)N[C@@H](CC(C)C)C(=O)N[C@@H](CCC(N)=O)C(=O)N[C@@H](CC(=O)O)C(=O)N[C@@H](Cc1ccc(O)cc1)C(=O)N1CCC[C@H]1C(=O)N[C@@H](CCCNC(=N)N)C(=O)N[C@H](C(=O)N[C@@H](CC(=O)O)C(=O)N[C@H](C(=O)NCC(=O)N[C@@H](C)C(=O)N[C@@H](CCC(=O)O)C(=O)N[C@@H](CO)C(=O)N1CCC[C@H]1C(N)=O)C(C)C)[C@@H](C)O
B7: calcitonin derivative M67 (peptide)
peptide: {C22 diacid-γGlu-AEEA-AEEA-AEEA-AEEA}-ASQLSTAVLGRLSEELHRLQDYPRTDVGSGSP-NH2
SMILES: CC(C)C[C@H](NC(=O)[C@H](CCCNC(=N)N)NC(=O)CNC(=O)[C@H](CC(C)C)NC(=O)[C@@H](NC(=O)[C@H](C)NC(=O)[C@@H](NC(=O)[C@H](CO)NC(=O)[C@H](CC(C)C)NC(=O)[C@H](CCC(N)=O)NC(=O)[C@H](CO)NC(=O)[C@H](C)NC(=O)COCCOCCNC(=O)COCCOCCNC(=O)COCCOCCNC(=O)COCCOCCNC(=O)CC[C@H](NC(=O)CCCCCCCCCCCCCCCCCCCCC(=O)O)C(=O)O)[C@@H](C)O)C(C)C)C(=O)N[C@@H](CO)C(=O)N[C@@H](CCC(=O)O)C(=O)N[C@@H](CCC(=O)O)C(=O)N[C@@H](CC(C)C)C(=O)N[C@@H](Cc1c[nH]cn1)C(=O)N[C@@H](CCCNC(=N)N)C(=O)N[C@@H](CC(C)C)C(=O)N[C@@H](CCC(N)=O)C(=O)N[C@@H](CC(=O)O)C(=O)N[C@@H](Cc1ccc(O)cc1)C(=O)N1CCC[C@H]1C(=O)N[C@@H](CCCNC(=N)N)C(=O)N[C@H](C(=O)N[C@@H](CC(=O)O)C(=O)N[C@H](C(=O)NCC(=O)N[C@@H](CO)C(=O)NCC(=O)N[C@@H](CO)C(=O)N1CCC[C@H]1C(N)=O)C(C)C)[C@@H](C)O

The binders below were run against T1, human amylin receptor (AMY3) on … (assay: cell-based or functional assay).

| EC50/nM, CRE-luciferase in amylin receptor/CRE-luc CHO cells [nM] | Binder |
| --- | --- |
| 0.017 | B1 |
| 0.017 | B2 |
| 0.017 | B3 |
| 0.028 | B4 |
| 0.037 | B5 |
| 0.017 | B6 |
| 0.017 | B7 |
